Tests used:
[1] = biological target: T1, SARS-CoV-2 spike RBD (BEI NR-53800) (SARS-CoV-2 Wuhan-Hu-1, UniProt P0DTC2 319-541); assay: fluorescence binding, carbon-dot aptamer on Ni-NTA@RBD
[2] = biological target: T1, SARS-CoV-2 spike RBD (BEI NR-53800); assay: ELISA-type bead assay (SA-HRP/TMB); 0.3 uM aptamer
[3] = biological target: T1, SARS-CoV-2 spike RBD (BEI NR-53800); assay: ELISA-type bead assay (SA-HRP/TMB)

Binder | binding result [2] | binding result [3] | further results
aptamer R (Apt@R2) (ssDNA) DNA: GGTATTGAGGGTCGCATCGTTACTGGACCAAACAGCACAAAGGACGCCCATAAACCCGGATGGCTCTAACTCTCCTCT |  |  | Kd [1]: 125 nM
aptamer S (Apt@S2) (ssDNA) DNA: GGTATTGAGGGTCGCATCGAAACAGGGCGTGATACGACGCGACGGCGTACTGTGGTGGGATGGCTCTAACTCTCCTCT | binds |  | 
aptamer T (Apt@T2) (ssDNA) DNA: GGTATTGAGGGTCGCATCGTAATAGCGCATGTTGTGAGGCAGGCGCGAATCAGCTCGTGAGATGGCTCTAACTCTCCTCT | binds |  | 
aptamer U (Apt@U2) (ssDNA) DNA: GGTATTGAGGGTCGCATCGTAATAGCGCATGTTGTGAGGCGGCGGAGTCATGTCGTGGGATGGCTCTAACTCTCCTCT |  | binds | 
aptamer W (Apt@W2) (ssDNA) DNA: GGTATTGAGGGTCGCATCGACACCGGGAGTGATACGTCGCGAGCACGTACTGTGTTGGGATGGCTCTAACTCTCCTCT |  | binds | 

From paper PMC10477244
